Test results reported in article PMC5677370, “Structure-based nuclear import mechanism of histones H3 and H4 mediated by Kap123” (eLife, 2017).

Molecular target: T1, full-length Kluyveromyces lactis (Kl) Kap123, wild type
T1 chain: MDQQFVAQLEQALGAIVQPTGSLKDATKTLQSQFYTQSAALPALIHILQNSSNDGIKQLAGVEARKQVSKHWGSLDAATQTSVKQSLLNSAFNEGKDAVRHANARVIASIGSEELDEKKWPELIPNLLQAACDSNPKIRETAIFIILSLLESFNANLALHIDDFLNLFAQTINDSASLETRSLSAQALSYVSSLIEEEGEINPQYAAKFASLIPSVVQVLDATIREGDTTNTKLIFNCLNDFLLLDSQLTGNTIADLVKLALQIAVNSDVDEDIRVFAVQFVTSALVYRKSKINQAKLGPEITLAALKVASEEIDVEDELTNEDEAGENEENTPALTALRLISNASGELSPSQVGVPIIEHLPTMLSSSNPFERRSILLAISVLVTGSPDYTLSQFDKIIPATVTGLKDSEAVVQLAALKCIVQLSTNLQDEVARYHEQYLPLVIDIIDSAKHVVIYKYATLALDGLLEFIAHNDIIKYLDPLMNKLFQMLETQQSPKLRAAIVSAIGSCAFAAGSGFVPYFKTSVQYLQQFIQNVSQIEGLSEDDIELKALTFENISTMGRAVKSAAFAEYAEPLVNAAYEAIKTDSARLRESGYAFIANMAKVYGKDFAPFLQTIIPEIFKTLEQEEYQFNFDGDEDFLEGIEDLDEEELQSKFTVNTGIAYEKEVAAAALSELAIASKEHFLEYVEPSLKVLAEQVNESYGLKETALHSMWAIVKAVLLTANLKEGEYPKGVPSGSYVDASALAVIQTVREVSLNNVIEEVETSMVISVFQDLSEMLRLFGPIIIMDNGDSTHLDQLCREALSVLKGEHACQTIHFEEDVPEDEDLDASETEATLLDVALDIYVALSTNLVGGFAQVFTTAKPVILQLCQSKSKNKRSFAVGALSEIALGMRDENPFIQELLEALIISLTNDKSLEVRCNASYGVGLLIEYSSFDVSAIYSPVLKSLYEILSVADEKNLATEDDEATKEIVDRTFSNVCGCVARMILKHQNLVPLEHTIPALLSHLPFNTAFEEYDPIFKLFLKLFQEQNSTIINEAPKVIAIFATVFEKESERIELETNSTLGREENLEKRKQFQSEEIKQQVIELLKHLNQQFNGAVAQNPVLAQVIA
Experiment: SPR
Conditions: chain shown with the change; 7°C; wild-type Kap123 immobilized on a CM5 chip with 7116 RU; peptides injected at 0-10 µM; parent: est. 1.00; read off a plot

## SGRGQGGKGLGQGGAKRHRKI [wild-type H4_(1–21)-NLS peptide, P02309 K5Q; K12Q]
  ratio to parent: 0.4
